# Measured values published in US20210169973A1.
# Target: murine TMEM219 expressed on murine islets and the murine beta cell line beta-TC (mouse) (UniProt Q9D123)
# Assay: cell-based or functional assay
# Sequence of UniProt Q9D123 (Q9D123 39-240): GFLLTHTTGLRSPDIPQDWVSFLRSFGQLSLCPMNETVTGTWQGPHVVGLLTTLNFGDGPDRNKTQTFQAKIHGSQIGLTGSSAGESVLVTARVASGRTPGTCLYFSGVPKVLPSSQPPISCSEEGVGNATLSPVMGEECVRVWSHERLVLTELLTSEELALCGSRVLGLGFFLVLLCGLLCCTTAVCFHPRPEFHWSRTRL
substance,measurement,value
"recombinant human IGFBP3 (Life Technologies, 10430H07H5) (from UniProt P17936 28-291) (ligand)","early apoptosis of murine islets by FACS (Annexin V+ 7AAD-), IGFBP3-treated vs. untreated",87%
